Molecular target: T1, Muc16 on tumor cells (human, UniProt Q8WXI7 1-14507)
T1 construct: whole, on cells; Endogenous protein; also called CA125
Test: flow cytometry on WISH cells

B1: OC125 (antibody)
chain 1: QVQLQESGPELVKPGASVKISCKASGYTFTDYNMHWVKQSHGKSLEWIGYIYPYNGDTGYNQKFRNKASLTVDTSSSTAYMELRSLTSEDSAVYYWARSGGFWYFDVWGQGGTTVTVSS
chain 2: DIQMTQSPAILSASPGEKVTMTCRATPSVSYMHWYQQKPGSSPKPLIYTTSNLASGVPARFSGGGSGTSYSLTVSRVEVEDAATYYCQQWSRSPPTFGAGTKLEIK
With B1 the “fold fluorescence shift at saturation binding against MJ-171” value was greater than 5 fold.
